One block for each binder: values may come before it.
What was measured:
[1] = biological target: T1, His-tagged human PD-1 (human, UniProt Q15116 25-167, limits assumed); experiment: Octet, His-tagged PD-1 as analyte
T1 construct: also called PD-1-His; huPD-1-His; not shown: histidine tag

[2] = biological target: T1, His-tagged human PD-1; experiment: Octet, antibody on AHC biosensors, His-tagged PD-1 as analyte
[3] = biological target: T1, His-tagged human PD-1; experiment: Biacore (SPR), mAb captured on Protein A chip, histidine-tagged human PD-1 as analyte
[4] = biological target: T1, His-tagged human PD-1; experiment: Octet, antibody on AHC biosensors, His-tagged human PD-1 as analyte
[5] = biological target: human PD-1 (human, UniProt Q15116 25-167, limits assumed); experiment: Octet (BLI), global fit, 1:1 binding model
Chain of human PD-1 (Q15116 25-167 limits assumed): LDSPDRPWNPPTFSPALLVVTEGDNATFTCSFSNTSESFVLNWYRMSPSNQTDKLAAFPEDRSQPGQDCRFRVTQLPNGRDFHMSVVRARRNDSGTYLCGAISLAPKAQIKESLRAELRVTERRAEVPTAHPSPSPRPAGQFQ

[6] = biological target: T2, cynomolgus PD-1 (cynomolgus, UniProt B0LAJ3 25-170); experiment: Octet (BLI), global fit, 1:1 binding model
T2 construct: also called cyno PD-1; not shown: carrier of the soluble construct (His tag or Fc)
T2 sequence (B0LAJ3 entry or part of it limits assumed, form in doubt): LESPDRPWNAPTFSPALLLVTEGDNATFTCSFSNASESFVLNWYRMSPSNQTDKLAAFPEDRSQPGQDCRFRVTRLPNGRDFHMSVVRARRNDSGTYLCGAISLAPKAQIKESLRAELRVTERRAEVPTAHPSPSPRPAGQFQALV

[7] = biological target: human CTLA-4 (human, UniProt P16410 36-161, limits assumed); experiment: Octet (BLI), global fit, 1:1 binding model
Chain of human CTLA-4 (P16410 36-161 limits assumed): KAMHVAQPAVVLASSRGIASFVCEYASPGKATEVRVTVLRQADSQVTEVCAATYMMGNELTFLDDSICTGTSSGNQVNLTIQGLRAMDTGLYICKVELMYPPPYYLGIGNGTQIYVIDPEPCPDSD

[8] = biological target: cynomolgus CTLA-4 (cynomolgus, UniProt G7PL88 36-161); experiment: Octet (BLI), global fit, 1:1 binding model
Chain of cynomolgus CTLA-4 (G7PL88 entry or part of it limits assumed, form in doubt): as the sequence (P16410 36-161 limits assumed) above, with S14N, L106M counted along it

T1 sequence (Q15116 25-167 limits assumed): as the sequence (Q15116 25-167 limits assumed) above

- Kd [1]: ~18 nM
- Kd [2]: 15 to 19 nM
- Kd [3]: 8.6 nM
B1: XENP22553 (antibody, V domains shown)
VH: QIQLVQSGSELKKPGASVKVSCKASGYTFTHYGMNWVRQAPGQGLEWMGWINTYTGEPTYADGFTGRFVFSLDTSVSTAYLQISSLKAEDTAVYFCARDYYGSSPYWGQGTLVTVSS
VL: DVLMTQSPDSLAVSLGERATINCKSSQSIVHSNGNTYLEWYQQKPGQSPKLLIYKVSNRFSGVPDRFSGSGSGTDFTLTISSLQAEDVAVYYCFQGSHVPNTFGGGTKVEIK

- Kd [4]: 333 nM
B2: XENP26928 (antibody, V domains shown)
VH: QIQLVQSGSELKKPGASVKVSCKASGYTFTHYGMNWVRQAPGQGLEWMGWINTYTGEPTYADGFTGRFVFSLDTSVSTAYLQISSLKAEDTAVYFCARDYYGSSPYWGQGTLVTVSS
VL: DVLMTQSPDSLAVSLGERATINCKSSQSIVHSEGNTYLEWYQQKPGQSPKLLIYKVSNRFSGVPDRFSGSGSGTDFTLTISSLQAEDVAVYYCFQGSHVPNTFGGGTKVEIK

- Kd [5]: 1.4 nM
- Kd [6]: 5.5 nM
- Kd [7]: ~4.1 nM
- Kd [8]: ~23 nM
B3: XmAb20717 (bispecific antibody)
chain 1: not shown
chain 2: EIVLTQSPATLSASPGERVTLTCRASQSVGNDVAWYQQKPGQAPRLLINYASHRYTGVPDRFTGSGYGTEFTLTISSVQSEDFGVYYCQQDFSSPRTFGGGTKVEIKGKPGSGKPGSGKPGSGKPGSEVQLVESGGGLVKPGGSLRLSCVASGFTFSNYWMNWVRQAPGKGLEWVAEIRLYSNNYATHYAESVKGRFTISRDDSKSTLYLQMNNLKTEDTGVYYCTRYYGNYGGYFDVWGRGTLVTVSSEPKSSDKTHTCPPCPAPPVAGPSVFLFPPKPKDTLMISRTPEVTCVVVDVKHEDPEVKFNWYVDGVEVHNAKTKPREEQYNSTYRVVSVLTVLHQDWLNGKEYKCKVSNKALPAPIEKTISKAKGQPREPQVYTLPPSREQMTKNQVKLTCLVKGFYPSDIAVEWESNGQPENNYKTTPPVLDSDGSFFLYSKLTVDKSRWQQGNVFSCSVLHEALHSHYTQKSLSLSPGK
chain 3: not shown

Source: patent publication US20220204624A1 (Xencor, published 2022)
